Square brackets hold non-standard residues; d marks the D form. Ends that are not written are not given here. pS = N[C@@H](COP(=O)(O)O)C(=O)O
Target: T1, Human 14-3-3γ (human, UniProt P61981 2-247)
T1 sequence: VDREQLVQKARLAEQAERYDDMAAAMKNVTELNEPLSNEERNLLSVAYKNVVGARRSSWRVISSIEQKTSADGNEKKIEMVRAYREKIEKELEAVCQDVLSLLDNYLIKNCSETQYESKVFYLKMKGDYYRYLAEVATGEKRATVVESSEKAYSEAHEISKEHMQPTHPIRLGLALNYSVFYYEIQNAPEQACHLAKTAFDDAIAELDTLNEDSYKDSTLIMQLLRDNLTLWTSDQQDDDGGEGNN
Assay: crystal structure

MPTPDATTPQAKGFRRAV[pS]ELDAKQAEAIMSPRFIGRRQSLIE [THp-(1-43), Ser19-phosphorylated N-terminal peptide of human tyrosine hydroxylase]
binding result: binds

Reference: paper PMC3872242 (Journal of molecular biology, 2013)
